Test: yeast display, Sf9 membrane polyspecificity reagent, FACS + sequencing; frameworks hold sequencing errors
Method in brief: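 Using colony PCR, genes from sorted yeast display clones were amplified, then sequenced on MiSeq at 2 × 250 and filtered by CDR length. The clones had been stained with 10% biotinylated, detergent-solubilized Sf9 membrane reagent for 1 hour at 4 °C and sorted by FACS into low and high (top ~1%) gates on anti-HA and streptavidin fluorescence. Polyreactivity labels come from the gate of origin.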

| Sequence | polyreactivity (PSR sort gate) |
| --- | --- |
| QVQLVESGGGLVQAGGRLRLRCAACGFTFARYAMGRSSQAPGKERELLAAITWSAGSTYYADSVKGRFTISRDTGKNTVFLQMTRLKPEDTAVYYCNALVIARNIEMDYWGQGTQVTVSS | high polyreactivity |
| QVQLVESGGGLVQAGGSLRLSCPASGNIFGNNAMGWYRQAPGKERELVAAIDGSGGSTYYADSVKGRFTISRDKAKNTVYLQMNSLKPEDTAVYYCAKTAVIWRTWRTVPSPGYHFGYWGQGTQVTVSS | low polyreactivity |
| QVQIEESGGGLVQAGGSLRLSCAASGFTFTYNDMGWNRQAPGKETEFVAAISSTGGSTYYADSVKGRFTISRDNAKNTVYLQMNSLKPEDTAVYYCAAEDSWYWDAWFDYWGQGTQVTVSS | low polyreactivity |
| QVQLVESGGGLVQAGGSLRLSCAASGSTIFENVMGWYRQAPGKEREFVAAINTSGGSTYYADSVKGRFTISRDNAKNTVYLQMNSLKPEDTAVYYCARDSYWEMDYWGQGTQVSVSS | low polyreactivity |
| QVQLVESGAGLVQAGGSLRLSCAASGRIFNWYVMGWYRQAPGKERELVAAINSGGITKYADSVKGRFTISRDNAKNTVYLQMNSLKPEDTAVYYCAAYYRRYDYDYWGQGTQVTVSS | high polyreactivity |
| QVQLVESGGGLVQAGGSLRLSCAASGSISGLYAMGWYRQAPGKERELVARIRWRGDSTYYADSVKGRFTISRDNAKNTVYLQMNSLNPEDTAVFYCAASAYSGKVNKYNYWGQGTQVTVSS | high polyreactivity |
| QVQLVESGGGLVQAGGSLRLSCAASGSTSRYALGWYIQAPGNERELVAAITRSGGTTYYADSVKGRFTISRDNAKNTVYLQMNSLIPEDTAVYYCATSDRQVKYDYWGQGTQVTVSS | low polyreactivity |
| QVQLVESGGGLVQAGGSLRLSCAASGIIMPSYVMGWYRQAPGKERELVAAITRSGGNTYYADSVKGRFTISRDNAKNTVYLQMNSLKPEDTAVYYCAARAPVRRYRAYEFDYWGQGTQVTVSS | high polyreactivity |
| QVQLVESGGGLVQAGGSLRLSCAASGFTFWEYALGWYRQAPGKERELVAAISRGTSTYYADSVKGRFTIPRDNAKNTVYLQMNSLKPEDTAVYYCAARQDPPLGYDYWGQGTQVTVSS | low polyreactivity |
| QFQLVESGGGLVQAGGSLRLSCAASGRIFYYYAMGWYRQAPGKERELVAAITRGGSTYADSVKGRFTISRDNAKNTVYLQMNSLKPEDTAVYYCAATYWYWDFRWMDYWGQGTQVTVSS | high polyreactivity |
| QVQLVESGGGLVQAGGSLRLRCAASGSTFSRYAMGWYRQAAGKERELVAAISWSGGSTYYADSVKGRFTISRDNAKNTVYLQMNSLKPEYTAVYYCAAYTYSFRANHDFWGQGTQVTVSS | high polyreactivity |
| QVQLVESGGGLVQAGGSLGLSCAASGFIFYAYVMGRYRQAPGKERELVAAISRNGGSTYYADSVKGRFTISRDNAKKSVYLQMNSLKPEDTAVYYCAALSYYRYSQEDDYWGQGTQVTVSS | high polyreactivity |
| QVQLVESGGGLVQAGGSLRLSCAASGSIFGNAMGWYRQAPGKEREFVAAISSSGSSTYYADSVKGRFTISRDNAKNTVYLQMNSLKPEDTAVYYCANRRRSAAPKYDYWGQGTQVTVSS | high polyreactivity |
| QVQLVESGGGLVQAGGSLRLSCAASGRIFIYYAMGWYRQAPGKERELVAAISWGGGRTYYADSVKGRFTITRDNAKNTVYLQINSLKPEDTAVYYCAAGVYTGQHEYDYWGQGTQVTVSS | low polyreactivity |
| QVQLVESGGGLVQAGGSLRLSCAASGSIFTYYAMGRYRQAPGKDRQLVAAISSNGGSTYYADSVKGRFTISRDNAKNTVYLQMNSLKPEDTAVYYCATVVNTWYQNGYEYWGQGTQVTVSS | low polyreactivity |
| QVQLLESGGGLVQAGGSLRLSCAASGLTFVRYDMGWDRQAPGKERELVAAISSSGGSTNYADSVKGRFTISRDNAKNTVYLQMNSLKPEDTAVYYCAADYTWRFLRFGYWGQGTQVTVSS | high polyreactivity |
| QVQLVESGGRLVQAGGSLRLSCAASGITFGNAMGWYRQAPGKERELVAGITFSSGSTYYADSVKGRFTISRDNAKNTVYLLMNSLKPEDTAVYYCATDSSKHPYSPTLLKFDYWGQGTQVTVSS | low polyreactivity |
| QVQLVESGGGLVQAGGSLRLSCAASGSTFYPNAMGRYRQAPGKERELVAAISRGTRTKYADSVKGRFTISRDNAKNNVYLQMNSLKPEDTAVYYCAADTGTGLDWGQGTQVNVSS | high polyreactivity |
| QVQLVESGGCLVQAGGSLRLSCAASGGIFSYNAMGWYRQAPGKERELVAAISYSGGNTYYADSVKGRFTISRDNAKNTVYLQMNSLKPEDTAVYYCAATGYYNWYTSGYWGQGTQVTVSS | high polyreactivity |
| QVQLVESGGGLVQAGGSLRLSCAASGRILLSYAMGWYRQAPGKERELVAAISRSGVSTYYADSVKGRFTISRDNAKNTVYLQMNSLKPEDTAVYYCAAVRSSPGKSWDYNYWGQGTQVTVSS | high polyreactivity |
| QVQLVESGGGLVQAGGSLRLSCAASGLNFRAYAMGWYRQAPGKERELVAAITWNGGSTNYADSVKGRFTISRDNAKNTVYLQMNSLKPEDTAVYYCNKYRISGLSKFYYWGQGTQVTVSS | high polyreactivity |
| QVQLVESGGGLVQAGGSLRLSCAASGRTFPYNAMGWYRQAPGNERELVAGISSGGTTTYADSVKGRFTISRDNAKNTVYLQMNSLKPEVTAVYYCAATVIIFDHSRPGWDDYDYWGQGTQVTVSS | low polyreactivity |

| Sequence | polyreactivity (PSR sort gate) |
| --- | --- |
| QVQLVESGGGIVQAGGSLRLSCAASGSTLDYHDMGWYRQAPGKEREFVAAIRSNDGSTYYADSVKGRFTISLDNAKNTVYLQMNSLKPEDTAVYYCNKDVWDGYDWPEFDYWGQGTQVTVSS | low polyreactivity |
| QVQLVESGGGLVQAGGSLRLSCAASGSTFYKYAMGWYRQAPGKERELVASISRSGGSTSYADSVKGRFTISRDNAKNTVYLQMNSLKPEDTAVYYCAATWRQHPGSMGYWGQGTQVTVSS | high polyreactivity |
| QVQLVESWGGLVQAGGSLRLSCAASGRIFDRYAMGWYRQAPGKERELVASISSGGSTYYADSVKGRFTISRDNAKNTVYLQMNSLKPEDTAVYYCNAEARSRRYRYEYWGQGTQVTVSS | high polyreactivity |
| QVQLVESGGGLVQAGGSLRLSCAASGFILLYYAMGWYRQAPVKERELVATITWSDGSTYYADSVKGRFTISRDNAKNTVYLQMNSLKPEDTAVYYCASPYKRYFYKGGDYWGQGTQVTVSS | low polyreactivity |
| QVQLVESGGGLLQAGGSLRLSCSASGSTFDDYAMGWYRQAPGKERELVAAIRWSGGSTYYADSVKGRFTISRDNAKNTVYLQMKSLKPEDTAVYYCNADGRRGRYDYWGQGTQVTVSS | low polyreactivity |
| QVQLVESGGGLVHAGGSLRLSCAASGSIFSAYAMGWYRQAPGKERELVAAISRSGGRTYYADSVKGRFTISRDNAKNTVYLQMNSLKPEDTAVYYCAAYFTYYSTLGRWYRYDYWGQGTQVTVSS | high polyreactivity |
| QVQLVESGGGLVQAGASLRLSCAASGSIFGGYAMGWYRQAPGKERELVAAISRSGRTNYADSVKGRFTISRDNAKNTVYLQMNSLKPEDTAVYYCAVDKRYGRVVGRDYDYWGQGTQVTVSS | high polyreactivity |
| QVQLVESGGGLVQAGGSLRLSCAASGSIFGYYAMGWYRQAPGKERELVATISNDGSTKYADSVKGRFTISRDNAKNTVYLQMNSLKPEDSAVYYCAADSARHGRDTYQPEYRNDYWGQGTQVTVSS | low polyreactivity |
| QVQLVESVGGLVQAGGSLRLSCAASGGTFLFYGMGWYRQAPGKERELVAVITWSGGSTYYADSVKGRFTISRDNAKNTVYLQMKSLKPEDTAVYYCNAANTGSPDYQSIGYNFNYWGQGTQVTVSS | low polyreactivity |
| QVQLVESGAGLVQAGGSLRLSCAPSGRTFWGKVMGWYRQAPGKERELVAAITGRVGSTRYADSVKGRFTISRDNAKNTVFLQMNSLKPEDTAVYYCNADDYELYDYWGQGTQVTVSS | low polyreactivity |
| QVQLVESGGGLVQAGGSLRLSCAASGRIIRYYAMGWYRPAPGKERELVAGITTGGGSTYYADSVKGRFTISRDNAKNTVYLQMNSLKPEDTAVYYCAARYYTTYYWGQGTQVTVSS | high polyreactivity |
| QVQLVESGGGLVQAGGSLRLSCAASGSIVHGYTMGWYRQEPGKERELVAAINSGDGSTYADSVKGRFPISRDNAKNTVYLQMNSLKPEDTAVYYCAADDSTLADGGDYWGQGTQVTVSS | low polyreactivity |
| QVQLVESGGGLVQAGGSLRLSCAASGYTFGHYAMGWYRQAPGKERELVAVNTSGGSTNYADSVKGRFTISRDNAKNTVYLQMNSLKPEDTAVYDCAADLYFYYVWIRDYWGQGTQVTVSS | low polyreactivity |
| QVQLVESGGGLVQAGGSLRLSCAASGSTFEYNAMGWYRQAPGKERELVASSTNYADSVKGRFTISRDNAKNTVYFQMNSLKPEDTAVYYCAREQGVNRNNDYWGQGTQVTVSS | low polyreactivity |
| QVQLEESGGGLVQAGGSLRLSCAASGPIFPGYVMGWYRQAPGKERELVAAISVRGGSTYYADSVKGRFTISRDNAKNTVYLQMNSLKPEDTAVYYCAADSYYYQGYRRYNYDYWGQGTQVTVSS | high polyreactivity |
| QVQLVESGGGLVQAGGSLRLSCAASGRIFCDNGMGWYRQAPAKESELVTYADSVKGLFTISRDNAKNTVYLQMNSLKPEDTAVYYCNKDPPRFSGLDENYWGQGTQVTVSS | low polyreactivity |
| QVQLQESRGGLVQAGGSLRLSCAASGTISDRAGMGWYRQAPAKNAIVATIDRGTNTNYADSVKGRFTISRDNAKNTVYLQMNSLKPEDTAVYNCAADGRYYIYLDYWGQGTQVTVSS | low polyreactivity |
| QVQLVESGGGLVQAGGSLRLSCAASGRTFRWYPMGWYRQAPGKERELVAAINPGGSTNYADSVKGRFTISRDNANNTVDLQMNSLKPEDSAVYYCNAAGYDALTQNYYWGQGTQVTVSS | low polyreactivity |
| QVQLVESGGGLVQAGGSLRLSCAASGSILGSNAMGWYRQAPGKERELVAAITSSGGSTYYADSVKGRFTISRDNAKNTVYLQMNSLKPEDTAVYYCAARTNYDSTRGEYDYWGQGTQVTVSS | low polyreactivity |
| QDQLVESGGGLVQAGGSLRLSCAASGSIFGRYAMGWYRQAPGKERELVANITSGDSTNYADSVKGRFTISRDNAKNTVYLQMNSLKPEDTAVYYCAADTIYFYYYRHWYSKYYYWGQGTQVTVSS | high polyreactivity |
| QVQLVESGGGLVQAGGSLRLSCAASGITFYRYVMGWYRQAPAKERELVAAITTGDSTSYADSVKGRFTISRDNAKNTVYLQMNSLKPEDTAVYYCAAVYYTALANYDYWGQGTQVTVSS | low polyreactivity |
